Paper PMC3617921

Target: MBP-Brh2 (U. maydis)
Assay: pull-down

fold lower level of Dss1 in the DNA-bound fraction than with Brh2Δ362–493::OB-AB: > 20 fold
Substance: hexahistidine (His)-tagged Dss1 (natural protein)
